Results from PMC9512048, “Characterization of a xylitol dehydrogenase from Aspergillus flavus and its application in L-xylulose production” (Frontiers in Bioengineering and Biotechnology, 2022).

T1: AfXDH (Aspergillus flavus, UniProt A0A7U2N396)
T1 construct: gene F9C07_11531; full length, 369 residues, 38,893 Da; 6xHis tag (printed as C-terminal, vector pQE80L); E. coli BL21 (DE3); monomer, 2 Zn per monomer
T1 sequence (A0A7U2N396 1-369): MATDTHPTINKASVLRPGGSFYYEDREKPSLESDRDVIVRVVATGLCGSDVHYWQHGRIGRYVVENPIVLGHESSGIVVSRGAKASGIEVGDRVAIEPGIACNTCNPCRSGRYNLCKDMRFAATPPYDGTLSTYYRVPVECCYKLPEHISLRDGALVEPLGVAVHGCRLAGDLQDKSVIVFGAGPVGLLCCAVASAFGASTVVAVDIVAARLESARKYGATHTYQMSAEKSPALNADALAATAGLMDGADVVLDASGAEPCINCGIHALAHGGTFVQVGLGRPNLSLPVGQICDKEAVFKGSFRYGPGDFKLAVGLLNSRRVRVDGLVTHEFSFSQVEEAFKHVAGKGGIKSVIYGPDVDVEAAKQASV

B1: AfXDH (Aspergillus flavus NRRL3357) (protein)
chain: T1 sequence (A0A7U2N396 1-369)
notes: full length, 369 residues, 38,893 Da; 6xHis tag (printed as C-terminal, vector pQE80L); E. coli BL21 (DE3); monomer, 2 Zn per monomer

Tests used:
AfXDH = target: T1, AfXDH; assay: product inhibition of xylitol oxidation; assay type: biochemical; conditions: read-out: K i, NADH
NADH formation at A340 = substrate: OC[C@@H](O)[C@@H](O)[C@H](O)[C@@H](O)CO; assay: NADH formation at A340; assay type: biochemical, Aspergillus flavus; conditions: NAD+, pH 9.5, only in abstract, b45 prints 16.2 mM for xylitol, so order in abstract may be uncertain
[1] = substrate: OC[C@@H](O)[C@H](O)[C@@H](O)CO; assay: NADH formation at A340, Michaelis-Menten fit; assay type: biochemical, Aspergillus flavus; conditions: NAD+, 20 mM Tris-glycine pH 9.5, 0.1 mM Zn2+, 16.9 in abstract and Table 2, but b45 prints 16.2 mM
Excerpt: (§1) NADH formation at A340, Michaelis-Menten fit on AfXDH

[2] = substrate: NC(=O)c1ccc[n+]([C@@H]2O[C@H](COP(=O)(O)OP(=O)(O)OC[C@H]3O[C@@H](n4cnc5c(N)ncnc54)[C@H](O)[C@@H]3O)[C@@H](O)[C@H]2O)c1; assay: NADH formation at A340, Michaelis-Menten fit; assay type: biochemical, Aspergillus flavus; conditions: xylitol, 20 mM Tris-glycine pH 9.5, 0.1 mM Zn2+, 0.1-3 mM NAD+, b45 prints 0.15 mM, varied: cofactor
Excerpt: as §1

Molecule | Ki (AfXDH) [µM] | Km (NADH formation at A340) [mM] | Km [1] [mM] | kcat [1] [s⁻¹] | kcat/Km [1] [M⁻¹ s⁻¹] | Km [2] [mM]
NC(=O)C1=CN([C@@H]2O[C@H](COP(=O)(O)OP(=O)(O)OC[C@H]3O[C@@H](n4cnc5c(N)ncnc54)[C@H](O)[C@@H]3O)[C@@H](O)[C@H]2O)C=CC1 [NADH] | 250 | – | – | – | – | –
B1 | – | 16.2 | 16.9 | 48.67 | 2880 | 0.17
